# In patent US20210236649A1 (ICONIC THERAPEUTICS, published 2021):
# B1: Human Factor VIIa (human plasma FVIIa) (enzyme, UniProt P08709 61-466, looked up)
# chain: ANAFLEELRPGSLERECKEEQCSFEEAREIFKDAERTKLFWISYSDGDQCASSPCQNGGSCKDQLQSYICFCLPAFEGRNCETHKDDQLICVNENGGCEQYCSDHTGTKRSCRCHEGYSLLADGVSCTPTVEYPCGKIPILEKRNASKPQGRIVGGKVCPKGECPWQVLLLVNGAQLCGGTLINTIWVVSAAHCFDKIKNWRNLIAVLGEHDLSEHDGDEQSRRVAQVIIPSTYVPGTTNHDIALLRLHQPVVLTDHVVPLCLPERTFSERTLAFVRFSLVSGWGQLLDRGATALELMVLNVPRLMTQDCLQQSRKVGDSPNITEYMFCAGYSDGSKDSCKGDSGGPHATHYRGTWYLTGIVSWGQGCATVGHFGVYTRVSQYIEWLQKLMRSEPRPGVLLRAPFP
# notes: also called hFVIIa; Human FVIIa
# B2: Lipidated rabbit tissue factor (receptor, UniProt P24055 33-292, looked up)
# chain: ADTTGRAYNLTWKSTNFKTILEWEPKSIDHVYTVQISTRLENWKSKCFLTAETECDLTDEVVKDVGQTYMARVLSYPARNGNTTGFPEEPPFRNSPEFTPYLDTNLGQPTIQSFEQVGTKLNVTVQDARTLVRRNGTFLSLRAVFGKDLNYTLYYWRASSTGKKTATTNTNEFLIDVDKGENYCFSVQAVIPSRKRKQRSPESLTECTSREQGRAREMFFIIGAVVVVALLIIVLSVTVYKCRKARAGPSGKESSPLNIA
# notes: Amine-coupled as a proteoliposome to flow cell 2 of the Biacore chip; Also used to start thrombin generation in rabbit plasma; also called rTF; rabbit TF
# Columns and labels:
# [1] = biological target: B2; assay: SPR (Biacore)
# Experimental: (§1) The GE procedure for proteoliposome immobilization (amine coupling) protocol was used to coat PS/PC/rTF on flow cell 2, and PS/PC/hTF on flow cell 3. Flow cells were equilibrated with running buffer (15 mM Hepes, 150 mM NaCl, 5 mM CaCl2, 25 mM Arginine, 0.01% Tween 80, pH7.4) at a flow rate of 5 μL/min. Kinetic analyses were performed at 37° C. by flowing consecutively increasing concentrations of each analyte […] in the running buffer (15 mM. HEPES, 150 mM NaCl, 5 mM CaCl2, 25 mM Arginine, 0.01% Tween 80, pH 7.4) over the sensor chip for 5 min followed by a 10 min dissociation period at a flow rate of 30 μL/min in parallel.
# (§2) Analyte binding to the lipidated TF was determined by subtracting the RU values noted in the reference flow cell 1 from flow cell 2 and 3. Binding of analytes to the TFs was monitored in real time to obtain on (ka) and off (kd) rates. The equilibrium dissociation constant (KD) was calculated from the observed ka and kd.
# [2] = biological target: B1; assay: SPR (Biacore 3000), lipidated rabbit TF amine-coupled, analyte 0-500 nM, 37 C
# Experimental: as §1, §2
# (§3) Based on the saturation concentration of the analyte, binding analysis was performed using saturating analyte concentrations of 0-500 nM for rabbit TF and 0-50 nM for human TF. Chi squared (χ²) analysis was carried out between the actual sensorgram and the calculated on- and off-rates to determine the accuracy of the analysis.
# [3] = biological target: B1; assay: SPR (Biacore 3000), lipidated rabbit TF on chip
# Experimental: as §1, §2, §3
fold lower affinity than to lipidated hTF [1] [fold],Ka [2] [M⁻¹],Kd [2] [µM],koff [2] [s⁻¹],kon [2] [M⁻¹ s⁻¹],Kd [3] [µM],Binder
~10,,,,,,B1
,2.5e+07,0.04,0.0014,34000,0.0395,B2
